Experimental data as given in patent publication EP4524159A1, “ANTIBODY AND USE THEREOF” (Sichuan Huiyu Pharmaceutical Co., Ltd., priority 2022, dated 2023).
Substitutions are numbered along the chain they refer to. Square brackets hold non-standard residues; d marks the D form. Peptide text beside a SMILES is read from it. * marks the point of attachment. Dolaproine = CO[C@@H]([C@@H]1CCCN1)[C@@H](C)C(=O)O; Dil = CC[C@H](C)[C@H](NC)[C@@H](CC(=O)O)OC; X1 = C[C@@H](N*)[C@@H](O)c1ccccc1; NMeV = CN[C@H](C(=O)O)C(C)C

B1: SB7 (antibody, V domains shown)
VH: QVQLQQSGPELVSPGESVKISCKGSGYTFTDYAVHWVKQSHSKSLEWIGVKSVYYGITKYSQNFKDKATMTVDKSSSTAYMELARLTSEDSAIYYCARDSYGSSRGYFDYWGQGTTLTVSS
VL: DIKMTQSPSSIYVSPGERVTITCKASQDINSFLSWFQQKPGKSPKTLIYRANRLVDGVPSRFSGSGSGQDYSLTISSLEYEDMGIYYCLQYDEFPRTFGGGTKLEIK
B2: 6A7-MMAE (conjugate)
VH: EVQLKESGAELVRPGASVKVSCKASGYSFTSYWMNWVKQRPGQGLEWIGMIHPSDSETKLNQKFRDRASLTVDKSSSTAYMQLSSPTSEDSAVYYCTINYESFYYAMDYWGQGTTVTVSS
VL: DIVMTQSPASLAVSLGQRATISCRASKSVSTSGYSYMHWYQQKPGQPPKLLLYLASNLESGVPARFSGSGSGADFTLNIHPVEEEDAATYYCLHSRELPYTFGGGTKLEIK
B3: 3C11-MMAE (conjugate)
VH: EVQLQQSGTVLARPGASVKMSCKASGYNFISYWLHWIKQRPGQGLEWIGGIYPGNTDTTYNQKFKGKAKVTAVTSATTAYMELSSLTNEDSAVYYCIRYDYDRGMDYWGQGTTVTVSS
VL: DIQMTQSPSSFSVSLGDRVTITCRASEDIYYRLAWYQQKPGNAPRLLISGATALETGVPSRFSGSGSGKDYTLSITSLQTEDVATYYCQHYWNIPWTFGGGTKLEIK
B4: 3B 12H5-MMAE (conjugate)
VH: EVQLQQSGTVLARPGASVKMSCKASGYSFTIYWVHWVKQRPGQGLEWIGAVYPGNDDTSYNQNFKGKAKLTAVTSATTAYMELSSLTIDDSAVYYCTRHTYDEVFDYWGQGTTVTVSS
VL: B3 VL with Q3V, F11L, R24K, A51G, A53N, T56A, V58I, T85I, I94T
B5: SB4 (antibody, V domains shown)
VH: QVQLQQSGAELVRPGTSVKISCKASGYTFTNYWLGWVKQRPGHGLEWIGDNYPGDNYRNFNEKFKGKATLTTDASSSTAYLQLSSLISEDSAVYFCTRSGGSRYYTMDYWGQGTSVTVSS
VL: DIVMTQAAFSNPVTLGTSASISCRSSRSLLHNNGITYLYWYLQKPGQSPQLLIYQMSNLASGVPDRFHSSGSGTDFTLSISRVEAEDVGVYYCAQNLDLPYTFGGGTKLEIK
B6: G10F6-MMAE (conjugate)
VH: EVKLVESGPGILQPSQTLSLTCSFSGFSLSTSGMGVSWVRQPSGKGLEWLAHIYWDDDKRYNPSLKGRLTISKDTPRNQVFLEITSVDTTDTATYYCARVPGNWDEDAMDYWGQGTTVTVSS
VL: DIQMTQSPLSLPVSLGDQASISCRSSQNIVHTNGNTYLEWYLQKVGQSPKLLIYKVSNRFSGVPDRFSGSGSGTDFTLKISRVEAEDLGVYYCFQGSHVPYTFGGGTKLEIK
B7: 10D2-MMAE (conjugate)
VH: EVQLQQSGPELKKPGETVKISCKASGYTFTDYSMHWVKQAPGKGLKWMGWINTETGQPTYADDFKGRFAFSLETSASSAYLQINNLKNEDTATYFCTRTFYYDYVGDYWGQGTTVTVSS
VL: DIVMTQSHKFMSTSVGDRVSITCKASQDVSTAVAWYRQKPGQSPKLLIYWASTRHTGVPDRLTGSGSGTDFALTINSVQAEDLALYYCQQHSSTPYTFGGGTKLEIK
B8: SB1 (antibody, V domains shown)
VH: QVQLQQSGPDLVRPGESVKISCKGSGYTFTDHAIHWVRQSHAKSLEWIGVISFSYDNTKYNQNFKGKATMTVDKSSNTAYMELARLTSEDSAIYYCARDCYGSNRGYFDYWGQGTTLTVSS
VL: DIRMTQSPSSMYASLGERVTITCKASQDINRFLSWFLQRPGKAPKTLIYRANNLVEGVPSRFSGSGSGQDYSLIISNLEYEDMGIYYCLQYDEFPRTFGGGTKLEIK
B9: 8E5-MMAE (conjugate)
VH: EVQLKESGPELKKPGETVKISCKASGYTLTDFSMHWLKQAPGKGLKWMGWINTETGAPTYADDFKGRFALSLDTSANTAYLQINNLKNEDTATYFCSRGRDYDPHFDYWGQGTTVTVSS
VL: EIVLTQSPATLSVTPGDRVSLSCRASQSISDFLHWYQQRSHESPRLLIKYASQSISGIPSRFGGSGSGSDFTLNINTVEPEDVGMYYCQSAHSFPYTFGGGTKLEIK
B10: SB6 (antibody, V domains shown)
VH: QGQMQQSGAELVKPGASVKLSCKTSGFTFNSSYITWLKQKPGQSLEWIAWIFAGTGGTYYNEKFTDKAQLTVDTTSSTAYMQFSSLTTEDSAIYYCARHGLGYDYWGQGTTLTVSS
VL: SIVMTQTPKFLLVSAGDRVTITCKASQSVNTDVAWYQQKSGQSPKLLIYSASNRYTGVPDRFTGSGYGTDFTFTISTVQAEDLAVYFCQQDHSSPPWTFGGGTKLEIK
B11: SB5 (antibody, V domains shown)
VH: QVQLRESGPGLVAPSQSLSITCTVSGFSLTDFGVNWVRQPPGKGLEWLGIIWANGRIEYNSALKSRLSISKDNSRSQVFLKLNSLQTDDTARYYCARDHDYDVEAMDYWGQGTSVTVSA
VL: QIVLTQSPAIKSASPGEKVTMTCSASSSVIYMHWYQQKSGSSPKRWIYDTSKLASGVPVRFSGSGSGTSYSLTISTMEAEDAATYYCQQWSSYPPTFGGGTKVEIK

Experiments:
[1] = tested on: HCC1806; experiment: In vitro killing by humanized antibody-vc-MMAE conjugate (CellTiter-Glo, 120 h); type: cell-based
Description: (§1) The colorectal cancer cells HCT116 and breast cancer cells HCC1806 were counted separately, adjusted to 3000 cells/well and plated in 96-well plates overnight. Conjugates were added at a final concentration of 200 nM to 0.000512 nM (a 5-fold dilution across 9 concentration points), totaling 200 µL, cultured at 37°C in a CO2 incubator for 120 h, half of the medium (100 µL) was discarded, and 100 µL of CellTiter-Glo Luminescent Cell Viability assay reagent (Promega, cat # G7570) was added to detect signal values on a BMG microplate reader. The inhibition activity of antibody on tumor cell growth was calculated by graphpad fitting based on the signal value and antibody concentration, and the results are shown in FIGS. 6a and 6b and Tables 19 and 20. Table 19 DAR value of anti-CDCP1 humanized antibody-vc-MMAE conjugate and its IC50 value for HCC1806

[2] = tested on: HCT116; experiment: as above; type: cell-based
Description: as §1

[3] = tested on: MCF7; experiment: In vitro killing by chimeric antibody-vc-MMAE conjugate (CellTiter-Glo, 120 h); type: cell-based; settings: MCF7 (120 h), cells that do not express CDCP1
Description: (§2) The specific steps were: Colorectal cancer cells HCT116, breast cancer cells MDA-MB-231, prostate cancer cells PC3, MCF7 cells were respectively counted, adjusted to 3000 cells/well, and plated onto 96-well plates overnight; Conjugates were added at a final concentration of 8 nM to 0.000512 nM (a 5-fold dilution across 7 concentration points), totaling 200 µL, cultured at 37 °C in a CO2 incubator for 120 h, half of the medium (100 µL) was discarded, and 100 µL of CellTiter-Glo Luminescent Cell Viability assay reagent (Promega, cat # G7570) was added to detect signal values on a BMG microplate reader. The inhibition activity of antibody on tumor cell growth was calculated by graphpad fitting based on the signal value and antibody concentration, and the results are shown in FIG. 5 and Table 15. Table 15 IC50 value of anti-CDCP1 chimeric antibody -vcMMAE conjugate on tumor cells

[4] = tested on: HCT116; experiment: as above; type: cell-based
Description: as §2

[5] = tested on: MDA-MB-231; experiment: as above; type: cell-based; settings: MDA-MB-231 (120 h)
Description: as §2

[6] = tested on: PC3; experiment: as above; type: cell-based; settings: PC3 (120 h)
Description: as §2, with “[…],” for “cultured at 37 °C in a CO2 incubator for 120 h,”

[7] = target: HuCDCP1-C (human) (UniProt Q9H5V8); experiment: ELISA, HuCDCP1-C coated 2 ug/ml
[8] = Drug : antibody ratio (DAR) of antibody-vc-MMAE conjugates by hydrophobic HPLC; settings: for DAR: chimeric antibody-vc-MMAE conjugates; for DAR2 (%): share of DAR2 species; for DAR4 (%): share of DAR4 species; for DAR6 (%): share of DAR6 species; for DAR8 (%): share of DAR8 species
Description: The specific operation was to reduce each antibody and the control antibody CD27H10 (27H10 antibody in WO2018112334A1) with a 2-fold molar amount of […] (TECP) at 4 °C for 1 hour. A 7-fold molar amount of vcMMAE was then added for ligation at 4-25 °C for 1 h, and then the reaction mixture was dialyzed against 1 × PBS pH 8.0 and filtered for sterilization. Drug : antibody ratio (DAR) was detected by hydrophobic kurtosis with HLPC, and the molecular coupling results are shown in Table 14. Table 14 DAR values of antibody-drug conjugates
The humanized antibodies 1CP-125, 1CP-117 and 1CP-152 were subjected to linking to form ADC, and the linking process was the same as in example 18. Table 18 DAR values of antibody-drug conjugates

[9] = tested on: MCF7; experiment: In vitro killing by chimeric antibody-vc-MMAE conjugate (CellTiter-Glo, 120 h); type: cell-based; settings: MCF7 (120 h), cells that do not express CDCP1; remark: listed apart in the source
Description: The inhibition activity of antibody on tumor cell growth was calculated by graphpad fitting based on the signal value and antibody concentration, and the results are shown in FIG. 5 and Table 15. Table 15 IC50 value of anti-CDCP1 chimeric antibody -vcMMAE conjugate on tumor cells

[10] = target: T1, HuCDCP1-B (human) (UniProt Q9H5V8); experiment: ELISA, HuCDCP1-B coated 2 ug/ml
T1 sequence (looked up): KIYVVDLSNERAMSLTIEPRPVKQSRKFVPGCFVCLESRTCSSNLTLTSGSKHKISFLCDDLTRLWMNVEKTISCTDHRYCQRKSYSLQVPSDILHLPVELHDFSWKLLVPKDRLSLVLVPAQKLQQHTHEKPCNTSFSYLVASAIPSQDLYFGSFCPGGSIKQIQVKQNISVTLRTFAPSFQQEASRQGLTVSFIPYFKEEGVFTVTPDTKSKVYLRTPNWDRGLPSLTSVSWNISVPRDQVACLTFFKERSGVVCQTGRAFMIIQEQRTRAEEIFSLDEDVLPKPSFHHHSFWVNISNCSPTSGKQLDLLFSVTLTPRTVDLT

Molecule	ELISA [7]	DAR [8]	DAR2 (%) [8]	DAR4 (%) [8]	DAR6 (%) [8]	DAR8 (%) [8]	also measured
CC[C@H](C)[C@@H]([C@@H](CC(=O)N1CCC[C@H]1[C@H](OC)[C@@H](C)C(=O)N[C@H](C)[C@@H](O)c1ccccc1)OC)N(C)C(=O)[C@@H](NC(=O)[C@@H](NC)C(C)C)C(C)C [MMAE] (H-[NMeV]V[Dil][Dolaproine]-X1)	–	–	–	–	–	–	IC50 [1]: 53 pM; IC50 [2]: 283 pM; IC50 [3]: 77.7 pM; IC50 [4]: 108 pM; IC50 [5]: 168 pM; IC50 [6]: 1.01 pM
B1	0.034 nM	–	–	–	–	–	–
B2	–	3.6	24.99%	38.25%	12.28%	5.30%	–
B3	–	3.48	33.89%	28.50%	8.28%	9.09%	–
B4	–	3.2	29.966%	37.81%	7.324%	1.741%	–
B5	0.071 nM	–	–	–	–	–	–
B6	–	3.6	32.59%	35.66%	12.02%	10.04%	IC50 [9]: > 200000 pM
B7	–	3.5	34.10%	39.38%	10.24%	8.00%	–
B8	0.092 nM	–	–	–	–	–	–
B9	–	3.65	32.01%	37.12%	11.15%	–	IC50 [9]: ~200000 pM
B10	0.027 nM	–	–	–	–	–	–
B11	0.413 nM	–	–	–	–	–	ELISA [10]: 0.208 nM
